# Results taken from patent publication US20240360224A1 (ORIONIS BIOSCIENCES, published 2024).
# Molecular target: T1, human Clec9A (human, UniProt Q6UXN8 1-241)
# T1 construct: Expressed on transfected CHO-K1, HEK293-T and HL116 cells, or native on human dendritic cells; also called hClec9A; C-type lectin domain family 9 member A
# Assay: flow cytometry, crude periplasmic extracts on CHO-K1 cells stably transfected with human Clec9A
# Method: A VHH library was constructed from an immunized of a llama. Three consecutive rounds of panning of a VHH library were performed in solution using stably transfected CHO-K cells expressing human Clec9A. The enrichment for antigen-specific phages was assessed after each round of panning by comparing the number of phagemid particles eluted from transfected cells (output) with the number of phagemid particles used for panning (input). The phage output increased about 10-fold in the 2nd round and about 10³-fold in the 3rd round, as compared to the output from the 1st round. The input phage was always about 10¹¹ and the output from first round was about 10⁸ phage particles. 285 randomly selected colonies from the 1st, 2nd and 3rd panning rounds (95 from each round) were sequenced and then grouped based on CDR3 sequences. Using crude periplasmic extracts including VHHs, 95 unique sequences were analyzed by flow cytometry for specificity to human Clec9A using CHO-K1 cells stably transfected with human Clec9A. The parental non-transfected CHO-K1 cells served as negative control cell. An irrelevant VHH was used as negative nanobody control. […] Table B below provides a description of 66 clones representing the 66 different anti-human Clec9A VHH genes. E. coli TG1 harboring recombinant phagemid pMECS containing anti-human Clec9A VHH sequences was generated and stored at […]. […]
# T1 sequence (Q6UXN8 whole entry, the tested form may be a part): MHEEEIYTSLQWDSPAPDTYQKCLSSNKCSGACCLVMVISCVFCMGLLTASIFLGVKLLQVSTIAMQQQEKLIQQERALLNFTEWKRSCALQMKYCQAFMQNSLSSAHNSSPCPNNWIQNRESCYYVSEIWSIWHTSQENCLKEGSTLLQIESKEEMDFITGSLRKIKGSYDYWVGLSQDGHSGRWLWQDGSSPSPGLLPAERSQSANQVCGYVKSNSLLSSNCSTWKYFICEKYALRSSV
binder,measurement,value
"2LEC 24 (VHH, Entry includes C-terminal AAA-HA-His tag (pMECS); only five His are printed in the text) VHH: QVQLQESGGGLVQAGGSLRLSCAASGRTFSTYAMGWFRQAPGKERGLVAAISWSGGSTYYADSVKGRFTIFRDNAENTVYLQMNSLKPEDTAVYYCAAEAEGSGREGNFYERSWYQGQGTQVTVSS",binding result,binds
